± gives the standard error. Variants at the floor of the assay were thinned out.
B1: glmS ribozyme (parent)
chain: AUAAAAGCGCCAGAACUACAGAAAUGUAGUUGACGAGGAGGAGGUUUAUCGAAUUUUCGGCGGAUGCCUCCAAA

Variants of: B1
Assay: self-cleavage kobs at 10000 uM GlcN6P; higher = faster cleavage; RNA array
Settings: with glucosamine-6-phosphate
Summary of the method: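 The measurements used barcoded ribozyme variants on sequenced MiSeq chips, transcribed in situ by E. coli RNA polymerase and tracked at 37 °C with a hybridised Cy3 probe. Glucosamine-6-phosphate, 40 μM to 10 mM in HEPES/KCl/Mg(OAc)2 buffer, was flowed in while tiles were imaged over ~14 h. Baseline-normalised signals, also normalised to non-cleaving reference variants, gave per-tile medians that were fit to one- or two-exponential decays for kobs. kcat and KM resulted from weighted Michaelis–Menten fits across concentrations.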

| Variant | self-cleavage kobs at 10000 uM GlcN6P [s⁻¹] |
| --- | --- |
| AUAAAAGCGCCAGAACUCCAGAAAUGUAGUUGCCGAGGAGGAGGUUUAUCGAAUUUUCGGCGGAUGCCUCCAAA [A18C A33C] | 0.000165 ± 4.4e-05 |
| AUAAAAGCGCCAGAACUACAGAAAUGUAAUUGACGAGGAGGAGGUUUAGCGAAUUGUCGGCGGAUGCCUCCAAA [G29A U49G U56G] | 3.31e-05 ± 1.3e-05 |
| AUAAAAGCGCCAGAACUACAGAAAUGUAAUUGACGAGGAGGAGGUUUAUCGAAUUGUCGGCGGAUGACUCCAAA [G29A U56G C67A] | 0.000277 ± 5.7e-05 |
| AUAAAAGCGCCAGAACUACAGAAAUGUAAUUGCCGAGGAGCAGGUUUAUCGAAUUUUCGGCGGAUGCCUUCAAA [G29A A33C G41C C70U] | < 1e-05 |
| AUAAAAGCGCCAGAACUACAGAAAUGUAGAUUACGAGGAGGAGGUUUAUCGAAUUUUCGGCGGAUGACUCCAAA [U30A G32U C67A] | 0.000213 ± 6e-05 |
| AUAAAAGCGCCAGAACUACAGAAAUGUAUUUGACGAGGAGGAGGUUUAUCGAAUCUACGGCGGAUGCCUCCAAA [G29U U55C U57A] | 4.36e-05 ± 1.5e-05 |
| AUAAAAGCGCCAGAAUUACAGAAAUGUAGUUGACGAGGAGGAGGUUUAUCGAAUGUUCGGCGGAUGCGUCCAAA [C16U U55G C68G] | 5.93e-05 ± 1.5e-05 |
| AUAAAAGCGCCAGAACUACAAAAAUGUAGUUGUCGAGGAGGAGGUUUAUCGAAUUUUCGGCGGAUGCCUCCAAA [G21A A33U] | 0.00012 ± 2.2e-05 |
| AUAAAAGCGCCAGAAAUACAGAAAUGUAGUGGACGAGGAGGAGGUUUAUCGAAUUUUCGGCGGAUGCUUCCAAA [C16A U31G C68U] | 4.49e-05 ± 1.5e-05 |
| AUAAAAGCGCCAGAAAUACAGAAAUGUAGUUGACGAGGAGGAGGUUUAGCGAAUUUUCGGCGGAUGCCUCCAAA [C16A U49G] | 2.8e-05 ± 1.1e-05 |
| AUAAAAGCGCCAGAACUACAGAAAUGUAGAUGACGAGGAGGAGGCUUAUCGAAUUUUCGGCGGAUGCCUCCAAA [U30A U45C] | 0.000307 ± 8.9e-05 |
| AUAAAAGCGCCAGAAGUACAGAAAUGUAGUUGGCGAGGAGGAGGUUUAUCGAAUUUUGGGCGGAUGCCUCCAAA [C16G A33G C58G] | < 1e-05 |
| AUAAAAGCGCCAGAAUUACAGAAAUGUAGUUGACGAGGAGGAGGUCUAUCGAAUUUUGGGGGGAUGCCUCCAAA [C16U U46C C58G C61G] | 5.92e-05 ± 2.1e-05 |
| AUAAAAGCGCCAGAAUUACAGAAAUGUAGUUGACGAGGAGGUGGUUUAUCGCAUUUUCGGCGGAUGCCUCCAAA [C16U A42U A52C] | < 1e-05 |
| AUAAAAGCGCCAGAACUACAGAAAUGUACUUGACGAGGAGGAGGUUUAUGGAAUUUUCGGGGGAUGCCUCUAAA [G29C C50G C61G C71U] | 8.93e-05 ± 2.1e-05 |
| AUAAAAGCGCCAGAAGUACAGAAAUGUAGUUGACGAGGUGGAGGUUAAUGGAAUUUUCGGCGGAUGCCUCCAAA [C16G A39U U47A C50G] | < 1e-05 |
| AUAAAAGCGCCAGAACUACAGAAAUGUAGAUGACGAGGAGGAGGUUGAUCGAGUUUUCGGCGGAUGCCUCCAAA [U30A U47G A53G] | 0.000616 ± 0.0001 |
| AUAAAAGCGCCAGAACUACAGAAAUGUAAUUGACGAGGACGAGAUUUAUCGAAUUUUCGGCGGAUGCCUCCAAA [G29A G40C G44A] | < 1e-05 |
| AUAAAAGCGCCAGAAGUACAGAAAUGUAGUUGACGAGGAGGGGGUUUAUCGAAUUUUCGGCGGAUGCCUCUAAA [C16G A42G C71U] | 0.00126 ± 0.00039 |

| Variant | self-cleavage kobs at 10000 uM GlcN6P [s⁻¹] |
| --- | --- |
| AUAAAAGCGCCAGAUCUACAGAAAUGUAGUUGACGAGGAGGAGGUUUAUCGAAUUUUCGUCCGAUGCCUCCAAA [A15U G60U G62C] | < 1e-05 |
| AUAAAAGCGCCAGAACUACAGAAAUGUAGAUGAGGAGGAGGAUGUUUAUCGAAUUUUCGGUGUAUGCCUCCAAA [U30A C34G G43U C61U G63U] | < 1e-05 |
| AUAAAAGCGCCAGAAAUACAGAAAUGUAAUUGACGAGGAGGAGGUUUAUAGAAUUUUCAGCGGAUGCCUCUAAA [C16A G29A C50A G59A C71U] | < 1e-05 |
| AUAAAAGCGCCAGAACUACAGAAAUGUACUUAACGAGGAGGAGGUUUAUCGAAAUUUCGGCGGAUGCCUCCAAA [G29C G32A U54A] | 0.000923 ± 0.00011 |
| AUAAAAGCGCCAGAACUACAGAAAUGUAUUUGACGAGGAGGAGGUUUAUCGAAAUUUCGGCGGAUGCUUCCAAA [G29U U54A C68U] | 0.000427 ± 0.00018 |
| AUAAAAGCGCCAGAACUACAGAAAUGUGGUUGACGAGGAGGAGGUUUAUCGUGUUUUCGGCGGAUGCCUCCAAA [A28G A52U A53G] | 9e-05 ± 1.6e-05 |
| AUAAAAGCGCCAGAAUUACAGAAAUGUAGUUGACCAGGAGGAGGUUUAUCGAAUUUUAGGCGGAUGCCUCCAAA [C16U G35C C58A] | < 1e-05 |
| AUAAAAGCGCCAGAAAUACAGAAAUGUAGUUGACCAGGUGGAGGUUUAUCGAAUUUUCGGCGGAUGCCUCCAAA [C16A G35C A39U] | < 1e-05 |
| AUAAAAGCGCCAGAACUACAGAAAUGUAGCUGACGAGGAGGAGGUUUAUCGAGUUUUCGGCGGAUACCUCCAAA [U30C A53G G66A] | 8.63e-05 ± 2.1e-05 |
| AUAAAAGCGCCAGAACUACAGAAAUGUACUUGACGGGGAGGAGGUUUAUCGAAUUUUCGCCGGAUGCCGCCAAA [G29C A36G G60C U69G] | < 1e-05 |
| AUAAAAGCGCCAGAACUACAGAAAUGUAAUUUACGAGGAGGAGGUUUAUAGAAUUUUCGGCGGAUGCGUCCAAA [G29A G32U C50A C68G] | 0.000193 ± 6e-05 |
| AUAAAAGCGCCAGAACUACAGAAAUGUAUUUGACGAGGAGGAGGUUUAUCGACUUUUCGGCGGAUACCUCCAAA [G29U A53C G66A] | 0.000258 ± 4.6e-05 |
| AUAAAAGCGCCAGAUCUACAGAAAUGUAGUUGACGAGGAGGAGGUUUAUCGAAUUGUCGGCGGAUGCCUCAAAA [A15U U56G C71A] | 0.000528 ± 0.00016 |
| AUAAAAGCGCCAGAAUUACAGAAAUGUAGUUGGCGCGGAGGAGGUUUAUCGAAUUUGGGGCGGAUGCCUCCAAA [C16U A33G A36C U57G C58G] | 7.07e-05 ± 2e-05 |
| AUAAAAGCGCCAGAAGUACAGAAAUGUAGUUGACCAGGAGGAGGUUUAUCGAAUUUUUGGCGGAUGCCUCCAAA [C16G G35C C58U] | < 1e-05 |
| AUAAAAGCGCCAGAACUACAGACAUGUAGUUGACGAGGAGGAGGUUUAUCGAAUUUUCGGCGGAUGCCUCAAAA [A23C C71A] | 0.00399 ± 0.00084 |
| AUAAAAGCGCCAGAACUACAGAAAUGUAGCUGACCAGGAGUAGGUUUAUCGAAUUUUCGGCGGAUGCCUCAAAA [U30C G35C G41U C71A] | < 1e-05 |
| AUAAAAGCGCCAGAACUACAGAACUGUACUUGACGAGGAGGAGGUUUAUCGAAUUUUCGGCGGAUGCCUCCAAA [A24C G29C] | 0.00129 ± 0.00026 |
